The source of these data is paper PMC7794297.

B1: TrxR 2: recombinant human thioredoxin reductase 2, selenoenzyme (protein, UniProt Q9NNW7 37-524, looked up)
Thioredoxin reductase 2, …: QRDYDLLVVGGGSGGLACAKEAAQLGRKVAVVDYVEPSPQGTRWGLGGTCVNVGCIPKKLMHQAALLGGLIQDAPNYGWEVAQPVPHDWRKMAEAVQNHVKSLNWGHRVQLQDRKVKYFNIKASFVDEHTVCGVAKGGKEILLSADHIIIATGGRPRYPTHIEGALEYGITSDDIFWLKESPGKTLVVGASYVALECAGFLTGIGLDTTIMMRSIPLRGFDQQMSSMVIEHMASHGTRFLRGCAPSRVRRLPDGQLQVTWEDSTTGKEDTGTFDTVLWAIGRVPDTRSLNLEKAGVDTSPDTQKILVDSREATSVPHIYAIGDVVEGRPELTPIAIMAGRLLVQRLFGGSSDLMDYDNVPTTVFTPLEYGCVGLSEEEAVARHGQEHVEVYHAHYKPLEFTVAGRDASQCYVKMVCLREPPQLVLGLHFLGPNAGEVTQGFALGIKCGASYAQVMRTVGIHPTCSEEVVKLRISKRSGLDPTVTGCUG
With B1, for the setting “5% (mol) catalyst, 2.5% (v/v) DMSO, 190 μM 3, Tris pH 7.8, 6 °C, uncatalyzed 0.014 ± 0.001”, the Kobs was found to be 0.035 ± 0.003 M⁻¹ s⁻¹. Also, for the setting “5% mol”, the “time until total completion of homodimerization” value is 5 days.
